{"source": "paper PMC10962938", "about": "(Proceedings of the National Academy of Sciences of the …, 2024)", "key": {"[1]": {"target": "Δ131Δ with a K16C mutation (model client)", "assay": "fluorescence polarisation"}, "[2]": {"target": "Δ131Δ with a K16C mutation (model client)", "assay": "fluorescence polarisation", "remark": "listed apart in the source"}, "[3]": {"target": "Grp94 full-length (FL) wild type (human, UniProt P14625 22-803, biotin label (Grp94 NH3-bio), in the streptavidin pull-down)", "sequence (P14625 22-803)": "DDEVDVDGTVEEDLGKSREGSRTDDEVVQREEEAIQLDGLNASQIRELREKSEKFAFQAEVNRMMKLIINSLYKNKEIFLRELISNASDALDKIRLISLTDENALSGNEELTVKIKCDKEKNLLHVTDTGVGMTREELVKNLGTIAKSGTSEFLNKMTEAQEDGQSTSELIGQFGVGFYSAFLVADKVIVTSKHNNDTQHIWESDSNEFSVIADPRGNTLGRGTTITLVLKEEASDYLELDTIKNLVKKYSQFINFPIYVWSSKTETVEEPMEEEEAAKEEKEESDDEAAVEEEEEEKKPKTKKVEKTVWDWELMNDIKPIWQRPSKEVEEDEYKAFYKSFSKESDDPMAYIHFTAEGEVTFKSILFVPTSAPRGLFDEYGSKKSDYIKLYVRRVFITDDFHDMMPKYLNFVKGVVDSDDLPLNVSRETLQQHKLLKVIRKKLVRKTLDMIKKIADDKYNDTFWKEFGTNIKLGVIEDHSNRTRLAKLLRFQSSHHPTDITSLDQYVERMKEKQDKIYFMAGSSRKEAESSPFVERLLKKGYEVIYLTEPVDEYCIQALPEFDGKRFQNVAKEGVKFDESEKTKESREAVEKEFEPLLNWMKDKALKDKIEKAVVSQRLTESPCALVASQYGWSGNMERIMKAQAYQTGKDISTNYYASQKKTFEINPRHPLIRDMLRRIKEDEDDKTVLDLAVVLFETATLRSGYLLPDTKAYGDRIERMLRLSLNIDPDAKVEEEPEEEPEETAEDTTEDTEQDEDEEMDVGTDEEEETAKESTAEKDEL", "assay": "pull-down"}}, "note": "Read-outs that look alike come from different tables or passages of the source."}
{"molecule": "Grp94 full-length (FL) wild type (from UniProt P14625 22-803) (natural protein)", "values": [{"measurement": "fold decrease of binding affinity against apo conditions", "setting": "[1]", "value": 2, "unit": "fold"}, {"measurement": "Kd", "setting": "[2]", "value": 7.2, "unit": "µM"}, {"measurement": "fold decrease of binding affinity against apo conditions", "setting": "[2]", "value": 2, "unit": "fold"}]}
{"molecule": "Grp94 Δ72 (pre-N domain truncation, aa 73-803) (from UniProt P14625 73-803) (domain or fragment)", "values": [{"measurement": "fold decrease of binding affinity against apo conditions", "setting": "[1]", "value": 6, "unit": "fold"}, {"measurement": "fold decrease of binding affinity against apo conditions", "setting": "[2]", "value": 4, "unit": "fold"}]}
{"molecule": "DnaJB11 (BiP co-chaperone, J-protein) (natural protein) GRDFYKILGVPRSASIKDIKKAYRKLALQLHPDRNPDDPQAQEKFQDLGAAYEVLSDSEKRKQYDTYGEEGLKDGHQSSHGDIFSHFFGDFGFMFGGTPRQQDRNIPRGSDIIVDLEVTLEEVYAGNFVEVVRNKPVARQAPGKRKCNCRQEMRTTQLGPGRFQMTQEVVCDECPNVKLVNEERTLEVEIEPGVRDGMEYPFIGEGEPHVDGEPGDLRFRIKVVKHPIFERRGDDLYTNVTISLVESLVGFEMDITHLDGHKVHISRDKITRPGAKLWKKGEGLPNFDNNNIKGSLIITFDVDFPKEQLTEEAREGIKQLLKQGSVQKVYNGLQGY", "values": [{"measurement": "binding result", "setting": "[3]", "value": "binds"}]}
